Laboratory results from patent US20210171647A1 (WUXI BIOLOGICS SHANGHAI, published 2021).
Residue numbers refer to the chain shown, from its start.

Key:
Experiment in all cases: ELISA, antibody coated, OX40-ECD.His mutant supernatant; relative to silent alanine substitutions;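 also: captured OX40 mutant protein detected with HRP-labelled anti-His antibody, absorbance read-out, scaled to the mean signal of control mutants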
human OX40-ECD.His V53A = target: T1, human OX40-ECD.His V53A (human, UniProt P43489 29-214)
T1 construct: extracellular domain; not shown: C-terminal His-tag
T1 sequence (looked up): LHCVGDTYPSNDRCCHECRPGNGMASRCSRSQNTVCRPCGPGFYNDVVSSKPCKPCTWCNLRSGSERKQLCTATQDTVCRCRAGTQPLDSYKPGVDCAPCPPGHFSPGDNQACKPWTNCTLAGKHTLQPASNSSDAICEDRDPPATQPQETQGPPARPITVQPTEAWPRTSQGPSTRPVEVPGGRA

human OX40-ECD.His R110A = target: T2, human OX40-ECD.His R110A (human, UniProt P43489 29-214)
T2 construct: extracellular domain; not shown: C-terminal His-tag
T2 sequence (looked up): T1 sequence (looked up) with A25V, R82A

human OX40-ECD.His K79A = target: T3, human OX40-ECD.His K79A (human, UniProt P43489 29-214)
T3 construct: extracellular domain; not shown: C-terminal His-tag
T3 sequence (looked up): T1 sequence (looked up) with A25V, K51A

human OX40-ECD.His H153A = target: T4, human OX40-ECD.His H153A (human, UniProt P43489 29-214)
T4 construct: extracellular domain; not shown: C-terminal His-tag
T4 sequence (looked up): T1 sequence (looked up) with A25V, H125A

human OX40-ECD.His P130A = target: T5, human OX40-ECD.His P130A (human, UniProt P43489 29-214)
T5 construct: extracellular domain; not shown: C-terminal His-tag
T5 sequence (looked up): T1 sequence (looked up) with A25V, P102A

human OX40-ECD.His D170A = target: T6, human OX40-ECD.His D170A (human, UniProt P43489 29-214)
T6 construct: extracellular domain; not shown: C-terminal His-tag
T6 sequence (looked up): T1 sequence (looked up) with A25V, D142A

human OX40-ECD.His T154A = target: T7, human OX40-ECD.His T154A (human, UniProt P43489 29-214)
T7 construct: extracellular domain; not shown: C-terminal His-tag
T7 sequence (looked up): T1 sequence (looked up) with A25V, T126A

human OX40-ECD.His R95A = target: T8, human OX40-ECD.His R95A (human, UniProt P43489 29-214)
T8 construct: extracellular domain; not shown: C-terminal His-tag
T8 sequence (looked up): T1 sequence (looked up) with A25V, R67A

human OX40-ECD.His P129A = target: T9, human OX40-ECD.His P129A (human, UniProt P43489 29-214)
T9 construct: extracellular domain; not shown: C-terminal His-tag
T9 sequence (looked up): T1 sequence (looked up) with A25V, P101A

human OX40-ECD.His P172A = target: T10, human OX40-ECD.His P172A (human, UniProt P43489 29-214)
T10 construct: extracellular domain; not shown: C-terminal His-tag
T10 sequence (looked up): T1 sequence (looked up) with A25V, P144A

B1: 1.134.9-u1-IgG1L (antibody, V domains shown)
VH: QVQLQESGPGLVKPSGTLSLTCAVSGGSISSYNWWSWVRQPPGKGLEWIGEIYHGGNTNYNPSLKSRVTMSVDNSKNQFSLKLSSVTAADTAVYYCARAPGDWGGSPYFDFWGQGTLVTVSS
VL: SSELTQDPAVSVALGQTVRITCQGDNLRTYYASWYQQKPGQAPILLIYGRNKRPSGIPDRFSGSSSGNTASLTITGAQAEDEAAYYCNSRDSSGNPVVFGGGTKLTVL
notes: fully human IgG1, lambda
B1 was tested, and the “Fold Change” value (human OX40-ECD.His V53A) was 0.896, the “Fold Change” value (human OX40-ECD.His R110A) was 0.955 and the “Fold Change” value (human OX40-ECD.His K79A) was 0.992. For the same binder, the “Fold Change” value (human OX40-ECD.His H153A) was 0.997, the “Fold Change” value (human OX40-ECD.His P130A) was 1.01 and the “Fold Change” value (human OX40-ECD.His D170A) was 1.01. For the same binder, the “Fold Change” value (human OX40-ECD.His T154A) was 0.843, the “Fold Change” value (human OX40-ECD.His R95A) was 0.996 and the “Fold Change” value (human OX40-ECD.His P129A) was 0.907. For the same binder, the “Fold Change” value (human OX40-ECD.His P172A) was 1.02.
